Results reported in US20240262929A1 (IBIO, published 2024).
Each block holds one binder with its values, some of them ahead of it.

How the values were obtained:
[1] = molecular target: T1, MUC16 on OVCAR-3 (MUC16high) and SKOV-3 (MUC16low) ovarian cancer cells (UniProt Q8WXI7 1-14507, limits assumed); assay: flow cytometry, hybridoma supernatant on OVCAR-3 or SKOV-3 cells (FIG. 5B)
T1 construct: whole, on cells; also called MUC16high cells; MUC16low cells
Protocol: Methods: Hybridoma supernatants were diluted 1:2 into FACS buffer containing OVCAR-3 or SKOV-3 cells and incubated for 30 minutes, then washed once with FACS buffer. 2 ug/mL APC labeled goat anti-mouse Fc secondary antibody diluted in FACS buffer was added to the cells and incubated for 20 minutes, then washed once with FACS buffer. Flow cytometry was performed with 20,000 cells per sample.

[2] = molecular target: T2, engineered epitope 2, 29-mer of MUC16 non-shed domain, aglycosylated (aglycosylated (produced synthetically); biotinylated for the Octet assay); assay: ELISA
T2 peptide: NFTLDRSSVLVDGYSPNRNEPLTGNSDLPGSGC

[3] = molecular target: T3, engineered epitope 1, 58-mer of MUC16 non-shed domain, glycosylated (N-glycosylated (expressed in mammalian cells, used in glycosylated form); biotinylated for the Octet assay); assay: ELISA
T3 peptide: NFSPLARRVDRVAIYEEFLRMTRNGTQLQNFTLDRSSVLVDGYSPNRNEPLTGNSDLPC

[4] = molecular target: T4, 230-mer MUC16 shed domain (UniProt Q8WXI7 14164-14393, biotinylated for the Octet assay); assay: BLI (Octet), biotinylated 230-mer shed domain on streptavidin biosensor, increasing concentrations of purified antibody
T4 construct: domain: 230-mer MUC16 shed domain
T4 sequence: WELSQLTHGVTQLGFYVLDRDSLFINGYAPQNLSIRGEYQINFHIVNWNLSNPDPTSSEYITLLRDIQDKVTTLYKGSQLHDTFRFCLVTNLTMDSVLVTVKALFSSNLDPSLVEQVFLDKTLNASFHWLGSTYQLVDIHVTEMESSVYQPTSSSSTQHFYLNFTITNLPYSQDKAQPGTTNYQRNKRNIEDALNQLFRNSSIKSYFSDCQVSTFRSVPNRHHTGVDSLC
Protocol: Methods: Biotinylated 29-mer engineered epitope, glycosylated 58-mer engineered epitope, 230-mer MUC16 shed domain and 288-mer MUC16 extra-cellular domain were immobilized on a Pall Octet 384-Red streptavidin biosensor. Immobilized biosensor tips were dipped into increasing concentration of purified antibody with a 4 minute association followed by a 3 minute dissociation.

[5] = molecular target: T5, engineered epitope 1, 58-mer of MUC16 non-shed domain, glycosylated (N-glycosylated (expressed in mammalian cells, used in glycosylated form); biotinylated for the Octet assay); assay: ELISA dose-response (FIG. 3)
T5 peptide: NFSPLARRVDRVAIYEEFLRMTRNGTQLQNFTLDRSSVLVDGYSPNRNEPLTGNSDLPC

[6] = molecular target: T6, engineered epitope 2, 29-mer of MUC16 non-shed domain, aglycosylated (aglycosylated (produced synthetically); biotinylated for the Octet assay); assay: ELISA dose-response (FIG. 3)
T6 peptide: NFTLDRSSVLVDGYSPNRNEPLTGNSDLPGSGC

[7] = molecular target: T1, MUC16 on OVCAR-3 (MUC16high) and SKOV-3 …; assay: cell binding on OVCAR3 cells (FIG. 9A)
[8] = molecular target: T2, engineered epitope 2, 29-mer of MUC16 …; assay: ELISA; table columns appear swapped relative to plotted curves
[9] = molecular target: T3, engineered epitope 1, 58-mer of MUC16 …; assay: as above
[10] = molecular target: T5, engineered epitope 1, 58-mer of MUC16 …; assay: hybridoma ELISA screen / dose-response (FIG. 8)
[11] = molecular target: T6, engineered epitope 2, 29-mer of MUC16 …; assay: binding graphs of FIG. 10 (presumably BLI as for FIG. 5A)
[12] = molecular target: T4, 230-mer MUC16 shed domain; assay: as above
[13] = molecular target: T4, 230-mer MUC16 shed domain; assay: binding graphs of FIG. 7A (presumably BLI as for FIG. 5A)
[14] = molecular target: T1, MUC16 on OVCAR-3 (MUC16high) and SKOV-3 …; assay: flow cytometry on MUC16high and MUC16low cells (FIG. 7B)
[15] = molecular target: T5, engineered epitope 1, 58-mer of MUC16 …; assay: ELISA dose-response (FIG. 6)
[16] = molecular target: T6, engineered epitope 2, 29-mer of MUC16 …; assay: ELISA dose-response (FIG. 6)
[17] = molecular target: T2, engineered epitope 2, 29-mer of MUC16 …; assay: ELISA
[18] = molecular target: T3, engineered epitope 1, 58-mer of MUC16 …; assay: ELISA

binding result [1]: binds | EC50 [2]: 560 pM | EC50 [3]: 510 pM | binding result [4]: no binding | binding result [5]: binds | binding result [6]: binds
B1: 1D7 anti-MUC16 clone (antibody, V domains shown)
VH: EVMLVESGGGLVKPGGSLKLSCVASGFTFSSFAMSWVRQTPEKRLEWVAIISSGGGYIYYADSMTGRFTISRDNAKNTLYLQMSSLRSEDTAMYYCARLGGDYDEFYAKDYWGQGTSVTVSS
VL: DIQMTQSSSSFSVSLGDRVTITCKASEDIYNRLAWYQQKPGNAPRLLISGATSLETGVPSRFSGSGSGKDYTLSITSLQTEDVATYYCQQYWSTWTFGGGTKLEIK
notes: Hybridoma antibody from immunized Balb/c mice; Used as purified antibody in BLI and as hybridoma supernatant in flow cytometry; also called clone 1D7

binding result [7]: binds | EC50 [8]: 3400 pM | EC50 [9]: 680 pM | binding result [10]: binds | binding result [11]: binds | binding result [12]: no binding
B2: 21G6 anti-MUC16 clone (antibody, V domains shown)
VH: EVQLEESGPGLVKPSQSLSLTCTVTGYSITSDYAWNWIRQFPGNKLEWMGYISYSGSTIYNPSLKSRISITRDTSKNQFFLHLNSVTTEDTATYYCATLGLDYWGQGTTLTVSS
VL: DFVMTQSPSSLAVSVGEKVTMSCKSSQSLLYSSNQKNYLAWYQQKPGQSPKLLIYWASTRGSGVPDRFTGSGSGTDFTLTISSVKAEDLAVYYCQQYHSYRTFGGGTKLEIK
notes: Hybridoma antibody from immunized Balb/c mice; also called clone 21G6

binding result [13]: no binding | binding result [14]: binds | binding result [15]: binds | binding result [16]: binds | EC50 [17]: 230 pM | EC50 [18]: 190 pM
B3: 8G4 anti-MUC16 clone (antibody, V domains shown)
VH: QIQLVQSGPELKMPGETVKISCKASGYTFTNFGMNWVKQAPGKALKWMGWINTNTGKPTYFEEFKGRFAFSLETSASTAYLQINNLKNEDTATYFCARRWDRSAWFAYWGQGTLVTVSA
VL: QAVVTQESALTTSPGETVTLTCRSSTGAVTTSNYANWVQEKPDHLFTGLIGGTNDRSPGVPARFSGSLIGDKAALTITGAQTEDEAIYFCALWYSNHWVFGGGTKLTVL
notes: Hybridoma antibody from immunized Balb/c mice; also called clone 8G4
